Laboratory results reported in patent publication US20250101080A1 (BIOSCEPTRE AUST, published 2025).

How the values were obtained:
[1] = molecular target: T1, dysfunctional (non-functional) P2X7 receptor expressed on human cancer cells (human, UniProt Q99572 1-595); experiment: cell-based or functional assay
T1 sequence: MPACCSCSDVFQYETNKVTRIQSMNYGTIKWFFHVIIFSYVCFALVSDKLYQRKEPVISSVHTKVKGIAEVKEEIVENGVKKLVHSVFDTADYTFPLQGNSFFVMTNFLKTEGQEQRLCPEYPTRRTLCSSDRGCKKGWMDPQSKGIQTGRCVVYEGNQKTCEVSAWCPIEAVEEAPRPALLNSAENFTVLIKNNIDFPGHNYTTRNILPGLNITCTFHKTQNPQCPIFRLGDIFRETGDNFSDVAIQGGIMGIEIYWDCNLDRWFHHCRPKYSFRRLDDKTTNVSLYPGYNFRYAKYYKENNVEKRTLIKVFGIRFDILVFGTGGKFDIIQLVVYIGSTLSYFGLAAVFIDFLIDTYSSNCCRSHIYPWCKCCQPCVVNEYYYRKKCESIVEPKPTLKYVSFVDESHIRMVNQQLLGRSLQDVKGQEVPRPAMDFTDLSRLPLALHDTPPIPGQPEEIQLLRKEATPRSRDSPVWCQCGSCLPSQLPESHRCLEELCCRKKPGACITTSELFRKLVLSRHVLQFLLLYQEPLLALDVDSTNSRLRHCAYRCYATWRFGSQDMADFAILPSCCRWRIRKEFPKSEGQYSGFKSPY

[2] = molecular target: T2, EXD2_K193A (nf-P2X7) surface fusion protein on HEK293 cells (human, UniProt Q99572 47-332); experiment: cell-based or functional assay
T2 sequence: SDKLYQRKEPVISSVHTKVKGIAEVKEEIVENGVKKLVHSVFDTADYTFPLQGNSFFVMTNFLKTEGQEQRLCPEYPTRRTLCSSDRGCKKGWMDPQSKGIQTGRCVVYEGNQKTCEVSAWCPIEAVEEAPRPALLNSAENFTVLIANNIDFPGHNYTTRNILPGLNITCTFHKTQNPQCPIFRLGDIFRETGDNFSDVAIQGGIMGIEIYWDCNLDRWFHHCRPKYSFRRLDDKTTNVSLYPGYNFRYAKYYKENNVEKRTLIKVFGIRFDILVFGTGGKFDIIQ

B1: PEP2-2-1-1 CAR (other)
chain: EVQLLESGGGLVQPGGSLRLSCAASGFTFRNHDMGWVRQAPGKGLEWVSAISGSGGSTYYADSVKGRFTISRDNSKNTLYLQMNSLRAEDTAVYYCAEPKPMDTEFDYRSPGTLVTVSSGGGESKYGPPCPSCPAPPVAGPSVFLFPPKPKDTLMISRTPEVTCVVVDVSQEDPEVQFNWYVDGVEVHNAKTKPREEQFNSTYRVVSVLTVLHQDWLNGKEYKCKVSNKGLPSSIEKTISKAKGQPREPQVYTLPPSQEEMTKNQVSLTCLVKGFYPSDIAVEWESNGQPENNYKTTPPVLDSDGSFFLYSRLTVDKSRWQEGNVFSCSVMHEALHNHYTQKSLSLSLGKPFWVLVVVGGVLACYSLLVTVAFIIFWVRSKRSRLLHSDYMNMTPRRPGPTRKHYQPYAPPRDFAAYRSRDQRLPPDAHKPPGGGSFRTPIQEEQADAHSTLAKIRVKFSRSADAPAYQQGQNQLYNELNLGRREEYDVLDKRRGRDPEMGGKPRRKNPQEGLYNELQKDKMAEAYSEIGMKGERRRGKGHDGLYQGLSTATKDTYDALHMQALPPR
fold change in cell killing against empty vector transduced CD8 T cells (CytoTox 96 assay, 4 hours, 1:1 ratio, MDA-MB-231 cells) [1]: ~2.5 fold | fold change in cell killing against empty vector transduced CD8 T cells (CytoTox 96 assay, 4 hours, 1:1 ratio) [2]: ~15 fold

B2: PEP2-472-2 CAR (other)
chain: EVQLLESGGGLVQPGGSLRLSCAASGYTFPMKDMGWVRQAPGKGLEWVSAISGSGGGTYYADSVKGRFTISRDNSKNTLYLQMNSLRAEDTAVYYCAEPKPMDTEFDYRSPGTLVTVLEGGGESKYGPPCPSCPAPPVAGPSVFLFPPKPKDTLMISRTPEVTCVVVDVSQEDPEVQFNWYVDGVEVHNAKTKPREEQFNSTYRVVSVLTVLHQDWLNGKEYKCKVSNKGLPSSIEKTISKAKGQPREPQVYTLPPSQEEMTKNQVSLTCLVKGFYPSDIAVEWESNGQPENNYKTTPPVLDSDGSFFLYSRLTVDKSRWQEGNVFSCSVMHEALHNHYTQKSLSLSLGKPFWVLVVVGGVLACYSLLVTVAFIIFWVRSKRSRLLHSDYMNMTPRRPGPTRKHYQPYAPPRDFAAYRSRDQRLPPDAHKPPGGGSFRTPIQEEQADAHSTLAKIRVKFSRSADAPAYQQGQNQLYNELNLGRREEYDVLDKRRGRDPEMGGKPRRKNPQEGLYNELQKDKMAEAYSEIGMKGERRRGKGHDGLYQGLSTATKDTYDALHMQALPPR
fold change in cell killing against empty vector transduced CD8 T cells (CytoTox 96 assay, 4 hours, 1:1 ratio, MDA-MB-231 cells) [1]: ~2.25 fold | fold change in cell killing against empty vector transduced CD8 T cells (CytoTox 96 assay, 4 hours, 1:1 ratio) [2]: ~11 fold
